Reference: paper PMC9098913, “In vitro reconstitution of Escherichia coli divisome activation” (Nature Communications, 2022)
Read-outs that look alike come from different tables or passages of the source.

How the values were obtained:
FtsZ = conditions: His-tagged FtsA
Experimental: Co-treadmilling of FtsA with FtsZ relies on the dynamic exchange of FtsA on the membrane. […] To investigate the respective contributions of membrane binding kinetics and FtsA self-interaction on the colocalization dynamics with FtsZ, we wanted to create variants of the two FtsA proteins that are permanently attached to the membrane. […] Accordingly, in these experiments the proteins only differ in their tendency to form oligomers.
To study colocalization of His-tagged variants of FtsA, 0.5–1 µM of Cy5 labelled His-tagged FtsAs were added to the chamber, incubated for 20 min and washed 6x with reaction buffer. […] To control the density of membrane-bound FtsA, SUVs without and with Tris-NTA lipids were mixed to obtain the respective Tris-NTA concentrations. To perform FRET/FRAP experiments, equimolar concentrations of Cy3 and Cy5 labelled His-tagged FtsAs (total 0.5–1 µM) or His-SUMO-Cys were added to a chamber and treated as above. […] FRAP experiments were performed as described before.
Time-lapse videos were first intensity-corrected and contrast-enhanced to avoid bleaching effects and simplify subsequent analysis. To remove contributions of X–Y drift, the videos were processed with the Linear Stack Alignment with SIFT plugin. Proper alignment was checked with the 3TP align plugin (J. A. Parker; Beth Israel Deaconess Medical Center, Boston). Subsequently, regions of interest (ROIs) in the center of the stacks were chosen for colocalization analysis. The Pearson’s correlation coefficient (PCC) was quantified with the Image CorrelationJ 1o plugin. To extract information about the relative ratio of FtsZ/FtsA molecules (slope of linear regression), we also used the Image CorrelationJ 1o plugin. As an output, the plugin provides a scatterplot of FtsZ vs FtsA intensities, to which we fitted a linear slope y=k⋅x+d , where k is the slope and d the offset. The slope was used as an estimate for the ratio of FtsA molecules below FtsZ filaments.

[1] = Membrane off-binding rate (koff) of FtsA from FRAP
From the text: We could also use the data from these bleaching experiments to quantify the membrane-binding kinetics and diffusion of membrane-bound proteins by analysing the change of the fluorescence profile during recovery.
Equimolar concentrations of Cy3- and Cy5-labelled FtsA, supplemented with 20% unlabelled FtsA were used to study FRET and FRAP. Five pre-bleach frames were acquired, followed by acceptor photobleaching of a rectangular ROI with 40% 641 nm laser power and a dwell size of 1 µs/pixel, 75% overlapping lines. The recovery of the signal or the increase in donor intensity were measured with either two frames or one frame per second.
Bleaching the acceptor dye leads to an increase in the donor intensity, which can be used to quantify the Foerster Resonance energy transfer (FRET)[48]. FRET efficiency was quantified with E%=Ipost/Ipost+Ipre⋅100 , where Ipost is the intensity of the […] and Ipre is the […]. […] To extract the contribution of both processes, we adjusted a routine recently published by Gerganova et al.[33]. In short, the code provides the contribution of both modes of recovery by analysing the shape of the fluorescence recovery profile. […] Contribution of diffusion leads to a change of the slope of the outer borders of the bleached region (S4h right). Thus, by measuring the change of the slope of the border recovery, diffusion and simple on/off binding can be distinguished. We developed “FRAPdiff”, a graphical user interface, which uses the original fit routine by David Rutkowski. It can be used directly on.tiff movies with annotated bleach regions as ImageJ ROIs. In addition, we added optional bleach correction, user selectable projection axis (x or y), and optional mirroring of the recovery profiles, if bleaching was not symmetric. The original fit routine for estimating the recovery and diffusion dynamics can be found at https://github.com/davidmrutkowski/1DReflectingDiffusion. FRAPdiff is available at 10.5281/zenodo.6400639[49] under the GPLv3 open-source license.

B1: FtsA R286W (protein)
chain: MIKATDRKLVVGLEIGTAKVAALVGEVLPDGMVNIIGVGSCPSRGMDKGGVNDLESVVKCVQRAIDQAELMADCQISSVYLALSGKHISCQNEIGMVPISEEEVTQEDVENVVHTAKSVRVRDEHRVLHVIPQEYAIDYQEGIKNPVGLSGVRMQAKVHLITCHNDMAKNIVKAVERCGLKVDQLIFAGLASSYSVLTEDERELGVCVVDIGGGTMDIAVYTGGALRHTKVIPYAGNVVTSDIAYAFGTPPSDAEAIKVRHGCALGSIVGKDESVEVPSVGGRPPWSLQRQTLAEVIEPRYTELLNLVNEEILQLQEKLRQQGVKHHLAAGIVLTGGAAQIEGLAACAQRVFHTQVRIGAPLNITGLTDYAQEPYYSTAVGLLHYGKESHLNGEAEVEKRVTASVGSWIKRLNSWLRKEF
modifications: Cy3 or Cy5 at the N-terminus in the labelled form (labelled CLEPTGG peptide conjugated to the 5xGly tag by sortagging); unlabelled protein also used; left off: TwinStrep-SUMO, N-terminal, cleaved | 5x
- PCC (FtsZ; 0.60% Tris NTA, Exp. 2 (statistical analysis)): 0.65
- PCC, Mean (FtsZ; 0.60% Tris NTA, n = 2 (WT), 3 (R286W), sd 0.07, 0.08, p-value 0.39): 0.56
- PCC (FtsZ; 0.80% Tris NTA, Exp. 1 (statistical analysis)): 0.79
- PCC (FtsZ; 0.80% Tris NTA, Exp. 2 (statistical analysis)): 0.63
- PCC (FtsZ; 0.80% Tris NTA, Exp. 3 (statistical analysis)): 0.69
- PCC, Mean (FtsZ; 0.80% Tris NTA, n = 3, 3, sd 0.0141 (WT), 0.0648 (R286W), p-value 0.61): 0.70
- PCC (FtsZ; 1.00% Tris NTA, Exp. 1 (statistical analysis)): 0.78
- PCC (FtsZ; 1.00% Tris NTA, Exp. 2 (statistical analysis)): 0.71
- PCC (FtsZ; 1.00% Tris NTA, Exp. 3 (statistical analysis)): 0.72
- PCC, Mean (FtsZ; 1.00% Tris NTA, n = 4 (WT), 3 (R286W), sd 0.08, 0.0316, p-value 6.25E-02): 0.73
- PCC (FtsZ; 2.00% Tris NTA, Exp. 1 (statistical analysis)): 0.63
- PCC (FtsZ; 2.00% Tris NTA, Exp. 2 (statistical analysis)): 0.53
- PCC (FtsZ; 2.00% Tris NTA, Exp. 3 (statistical analysis)): 0.55
- PCC, Mean (FtsZ; 2.00% Tris NTA, n = 3, 3, sd 0.0143 (WT), 0.04 (R286W), p-value 1.59E-04): 0.57
- PCC (FtsZ; […] Tris NTA, Exp. 1 (statistical analysis)): 0.60
- PCC (FtsZ; […] Tris NTA, Exp. 2 (statistical analysis)): 0.62
- PCC (FtsZ; […] Tris NTA, Exp. 3 (statistical analysis)): 0.65
- PCC, Mean (FtsZ; […] Tris NTA, n = 3, 3, sd 0.06 (WT), 0.02 (R286W), p-value 3.86E-04): 0.63
- Off binding rate, mean ([1]; 0.1 µM FtsA + FtsN&Z): 0.0939 s
- Off binding rate, mean ([1]; 0.1 µM FtsA + FtsN): 0.062 s
- Off binding rate, mean ([1]; 0.1 µM FtsA + FtsZ): 0.204 s
- Off binding rate ([1]; 0.1µM FtsA alone, Mean, n=6): 0.3263
- Off binding rate, mean ([1]; 0.1 µM FtsA alone): 0.326 s
- Off binding rate ([1]; 0.1µM FtsA alone, replicate Exp.1): 3.18E-01
- Off binding rate ([1]; 0.1µM FtsA alone, replicate Exp.2): 1.79E-01
- Off binding rate ([1]; 0.1µM FtsA alone, replicate Exp.3): 4.12E-01
- Off binding rate ([1]; 0.1µM FtsA alone, replicate Exp.4): 4.03E-01
- Off binding rate ([1]; 0.1µM FtsA alone, replicate Exp.5): 3.20E-01
- Off binding rate ([1]; 0.1µM FtsA alone, replicate Exp.6): 3.25E-01
- Off binding rate ([1]; 0.1µM, + FtsN&Z, Mean, n=3): 0.0939
- Off binding rate ([1]; 0.1µM, + FtsN&Z, replicate Exp.1): 1.11E-01
- Off binding rate ([1]; 0.1µM, + FtsN&Z, replicate Exp.2): 5.81E-02
- Off binding rate ([1]; 0.1µM, + FtsN&Z, replicate Exp.3): 1.13E-01
- Off binding rate ([1]; 0.1µM, + FtsN, Mean, n=3): 0.0620
- Off binding rate ([1]; 0.1µM, + FtsN, replicate Exp.1): 5.84E-02
- Off binding rate ([1]; 0.1µM, + FtsN, replicate Exp.2): 3.36E-02
- Off binding rate ([1]; 0.1µM, + FtsN, replicate Exp.3): 9.39E-02
- Off binding rate ([1]; 0.1µM, + FtsZ, Mean, n=4): 0.2040
- Off binding rate ([1]; 0.1µM, + FtsZ, replicate Exp.1): 1.08E-01
- Off binding rate ([1]; 0.1µM, + FtsZ, replicate Exp.2): 3.38E-01
- Off binding rate ([1]; 0.1µM, + FtsZ, replicate Exp.3): 3.22E-01
- Off binding rate ([1]; 0.1µM, + FtsZ, replicate Exp.4): 4.74E-02
- Off binding rate, mean ([1]; 0.2 µM FtsA + FtsN&Z): 0.099 s
- Off binding rate, mean ([1]; 0.2 µM FtsA + FtsN): 0.171 s
- Off binding rate, mean ([1]; 0.2 µM FtsA + FtsZ): 0.227 s
- Off binding rate ([1]; 0.2µM FtsA alone, Mean, n=6): 0.2513
- Off binding rate, mean ([1]; 0.2 µM FtsA alone): 0.251 s
- Off binding rate ([1]; 0.2µM FtsA alone, replicate Exp.1): 2.65E-01
- Off binding rate ([1]; 0.2µM FtsA alone, replicate Exp.2): 3.55E-01
- Off binding rate ([1]; 0.2µM FtsA alone, replicate Exp.3): 3.00E-01
- Off binding rate ([1]; 0.2µM FtsA alone, replicate Exp.4): 1.69E-01
- Off binding rate ([1]; 0.2µM FtsA alone, replicate Exp.5): 2.80E-01
- Off binding rate ([1]; 0.2µM FtsA alone, replicate Exp.6): 1.38E-01
- Off binding rate ([1]; 0.2µM, + FtsN&Z, Mean, n=6): 0.0990
- Off binding rate ([1]; 0.2µM, + FtsN&Z, replicate Exp.1): 2.98E-02
- Off binding rate ([1]; 0.2µM, + FtsN&Z, replicate Exp.2): 2.05E-01
- Off binding rate ([1]; 0.2µM, + FtsN&Z, replicate Exp.3): 6.45E-02
- Off binding rate ([1]; 0.2µM, + FtsN&Z, replicate Exp.4): 4.84E-02
- Off binding rate ([1]; 0.2µM, + FtsN&Z, replicate Exp.5): 1.35E-01
- Off binding rate ([1]; 0.2µM, + FtsN&Z, replicate Exp.6): 1.11E-01
- Off binding rate ([1]; 0.2µM, + FtsN, Mean, n=4): 0.1710
- Off binding rate ([1]; 0.2µM, + FtsN, replicate Exp.1): 5.13E-02
- Off binding rate ([1]; 0.2µM, + FtsN, replicate Exp.2): 3.51E-01
- Off binding rate ([1]; 0.2µM, + FtsN, replicate Exp.3): 1.05E-01
- Off binding rate ([1]; 0.2µM, + FtsN, replicate Exp.4): 1.76E-01
- Off binding rate ([1]; 0.2µM, + FtsZ, Mean, n=6): 0.2270
- Off binding rate ([1]; 0.2µM, + FtsZ, replicate Exp.1): 2.24E-01
- Off binding rate ([1]; 0.2µM, + FtsZ, replicate Exp.2): 4.14E-01
- Off binding rate ([1]; 0.2µM, + FtsZ, replicate Exp.3): 9.28E-02
- Off binding rate ([1]; 0.2µM, + FtsZ, replicate Exp.4): 4.05E-01
- Off binding rate ([1]; 0.2µM, + FtsZ, replicate Exp.5): 1.38E-01
- Off binding rate ([1]; 0.2µM, + FtsZ, replicate Exp.6): 8.76E-02
- Off binding rate, mean ([1]; 0.4 µM FtsA + FtsN&Z): 0.101 s
- Off binding rate, mean ([1]; 0.4 µM FtsA + FtsN): 0.18 s
- Off binding rate, mean ([1]; 0.4 µM FtsA + FtsZ): 0.179 s
- Off binding rate ([1]; 0.4µM FtsA alone, Mean, n=9): 0.3738
- Off binding rate, mean ([1]; 0.4 µM FtsA alone): 0.374 s
- Off binding rate ([1]; 0.4µM FtsA alone, replicate Exp.1): 7.99E-01
- Off binding rate ([1]; 0.4µM FtsA alone, replicate Exp.2): 6.65E-01
- Off binding rate ([1]; 0.4µM FtsA alone, replicate Exp.3): 6.54E-01
- Off binding rate ([1]; 0.4µM FtsA alone, replicate Exp.4): 2.78E-01
- Off binding rate ([1]; 0.4µM FtsA alone, replicate Exp.5): 1.57E-01
- Off binding rate ([1]; 0.4µM FtsA alone, replicate Exp.6): 1.25E-01
- Off binding rate ([1]; 0.4µM FtsA alone, replicate Exp.7): 2.26E-01
